This is an account of results in PMC12477886.

What all share (assay): BLI
In general terms: In BLI a coated tip is dipped into the sample, and binding shifts an interference pattern.

Test [1] addresses M15 triple mutant (light chain S32I, G51A and T57I all reverted to germline) (human).
Test [2] has as its target M15 single reverted mutant G51A (light chain A51 reverted to germline G) (human).
Test [3] addresses M15 single reverted mutant T57I (light chain I57 reverted to germline T) (human).
Test [4] has as its target M15 single reverted mutant S32I (light chain I32 reverted to germline S) (human).

As to “SARS-CoV-2 WA1/2020 S2 protein (stabilized prefusion spike S2 trimer) (from UniProt P0DTC2) (domain or fragment)”, the fold decrease in binding affinity compared with M15 in test [1] came out at 12 fold; in test [2] it was 1.88 fold; in test [3], 1.02 fold; in test [4], 1.45 fold.
